Source: the Human Domainome abundance scans (Beltran et al. 2025)
± gives the uncertainty stated by the source.

B1: Far upstream element-binding protein 2, residues 142 to 214; numbered along this chain, Q92945 (parent)
chain: RTSMTEEYRVPDGMVGLIIGRGGEQINKIQQDSGCKVQISPDSGGLPERSVSLTGAPESVQKAKMMLDDIVSR

Variants of: B1
Assay: abundance fitness (aPCA) (normalised: wild type 0, dead -1); higher = more abundant; growth selection in yeast, the domain comes from the species named
Conditions: Homo sapiens

Row | Variant | abundance fitness
1 | RTSMTEEYRVPDGMVGLIIGRGMEQINKIQQDSGCKVQISPDSGGLPERSVSLTGAPESVQKAKMMLDDIVSR | -0.141 ± 0.07
2 | RTSMTEEYRVPDGMVGLIIGRGVEQINKIQQDSGCKVQISPDSGGLPERSVSLTGAPESVQKAKMMLDDIVSR | -0.257 ± 0.047
3 | RTSMTEEYRVPDGMVGLIIGRGSEQINKIQQDSGCKVQISPDSGGLPERSVSLTGAPESVQKAKMMLDDIVSR | -0.178 ± 0.05
4 | RTSMTEEYRVPDGMVGLIIGRGAEQINKIQQDSGCKVQISPDSGGLPERSVSLTGAPESVQKAKMMLDDIVSR | -0.149 ± 0.048
5 | RTSMTEEYRVPDGMVGLIIMRGGEQINKIQQDSGCKVQISPDSGGLPERSVSLTGAPESVQKAKMMLDDIVSR | -0.805 ± 0.087
6 | RTSMTEEYRVPDGMVGLIIHRGGEQINKIQQDSGCKVQISPDSGGLPERSVSLTGAPESVQKAKMMLDDIVSR | -0.576 ± 0.099
7 | RTSMTEEYRVPDGMVGLIICRGGEQINKIQQDSGCKVQISPDSGGLPERSVSLTGAPESVQKAKMMLDDIVSR | -1.28 ± 0.11
8 | RTSMTEEYRVPDGMVGLIIPRGGEQINKIQQDSGCKVQISPDSGGLPERSVSLTGAPESVQKAKMMLDDIVSR | -0.576 ± 0.053
9 | RTSMTEEYRVPDGMVGLIISRGGEQINKIQQDSGCKVQISPDSGGLPERSVSLTGAPESVQKAKMMLDDIVSR | -0.298 ± 0.043
10 | RTSMTEEYRVPDGMVGLIIWRGGEQINKIQQDSGCKVQISPDSGGLPERSVSLTGAPESVQKAKMMLDDIVSR | -0.96 ± 0.067
11 | RTSMTEEYRVPDGMVGLIIVRGGEQINKIQQDSGCKVQISPDSGGLPERSVSLTGAPESVQKAKMMLDDIVSR | -1.38 ± 0.076
12 | RTSMTEEYRVPDGMVGLIIFRGGEQINKIQQDSGCKVQISPDSGGLPERSVSLTGAPESVQKAKMMLDDIVSR | -1.01 ± 0.14
13 | RTSMTEEYRVPDGMVGLIILRGGEQINKIQQDSGCKVQISPDSGGLPERSVSLTGAPESVQKAKMMLDDIVSR | -1.07 ± 0.059
14 | RTSMTEEYRVPDGMVGLIIKRGGEQINKIQQDSGCKVQISPDSGGLPERSVSLTGAPESVQKAKMMLDDIVSR | -0.401 ± 0.062
15 | RTSMTEEYRVPDGMVGLIIDRGGEQINKIQQDSGCKVQISPDSGGLPERSVSLTGAPESVQKAKMMLDDIVSR | -0.086 ± 0.065
16 | RTSMTEEYRVPDGMVGLIINRGGEQINKIQQDSGCKVQISPDSGGLPERSVSLTGAPESVQKAKMMLDDIVSR | -0.389 ± 0.1
17 | RTSMTEEYRVPDGMVGLIIQRGGEQINKIQQDSGCKVQISPDSGGLPERSVSLTGAPESVQKAKMMLDDIVSR | -0.4 ± 0.061
18 | RTSMTEEYRVPDGMVGLIIRRGGEQINKIQQDSGCKVQISPDSGGLPERSVSLTGAPESVQKAKMMLDDIVSR | -0.428 ± 0.042
19 | RTSMTEEYRVPDGMVGLIITRGGEQINKIQQDSGCKVQISPDSGGLPERSVSLTGAPESVQKAKMMLDDIVSR | -0.59 ± 0.059

Row | Variant | abundance fitness
20 | RTSMTEEYRVPDGMVGLIIIRGGEQINKIQQDSGCKVQISPDSGGLPERSVSLTGAPESVQKAKMMLDDIVSR | -1.09 ± 0.18
21 | RTSMTEEYRVPDGMVGLIIGNGGEQINKIQQDSGCKVQISPDSGGLPERSVSLTGAPESVQKAKMMLDDIVSR | 0.074 ± 0.069
22 | RTSMTEEYRVPDGMVGLIIGWGGEQINKIQQDSGCKVQISPDSGGLPERSVSLTGAPESVQKAKMMLDDIVSR | -0.353 ± 0.045
23 | RTSMTEEYRVPDGMVGLIIGPGGEQINKIQQDSGCKVQISPDSGGLPERSVSLTGAPESVQKAKMMLDDIVSR | 0.008 ± 0.042
24 | RTSMTEEYRVPDGMVGLIIGEGGEQINKIQQDSGCKVQISPDSGGLPERSVSLTGAPESVQKAKMMLDDIVSR | 0.088 ± 0.04
25 | RTSMTEEYRVPDGMVGLIIGDGGEQINKIQQDSGCKVQISPDSGGLPERSVSLTGAPESVQKAKMMLDDIVSR | 0.133 ± 0.055
26 | RTSMTEEYRVPDGMVGLIIGYGGEQINKIQQDSGCKVQISPDSGGLPERSVSLTGAPESVQKAKMMLDDIVSR | -0.148 ± 0.06
27 | RTSMTEEYRVPDGMVGLIIGGGGEQINKIQQDSGCKVQISPDSGGLPERSVSLTGAPESVQKAKMMLDDIVSR | -0.043 ± 0.036
28 | RTSMTEEYRVPDGMVGLIIGIGGEQINKIQQDSGCKVQISPDSGGLPERSVSLTGAPESVQKAKMMLDDIVSR | -0.191 ± 0.06
29 | RTSMTEEYRVPDGMVGLIIGQGGEQINKIQQDSGCKVQISPDSGGLPERSVSLTGAPESVQKAKMMLDDIVSR | -0.015 ± 0.045
30 | RTSMTEEYRVPDGMVGLIIGSGGEQINKIQQDSGCKVQISPDSGGLPERSVSLTGAPESVQKAKMMLDDIVSR | 0.02 ± 0.039
31 | RTSMTEEYRVPDGMVGLIIGVGGEQINKIQQDSGCKVQISPDSGGLPERSVSLTGAPESVQKAKMMLDDIVSR | -0.068 ± 0.037
32 | RTSMTEEYRVPDGMVGLIIGKGGEQINKIQQDSGCKVQISPDSGGLPERSVSLTGAPESVQKAKMMLDDIVSR | 0.056 ± 0.051
33 | RTSMTEEYRVPDGMVGLIIGTGGEQINKIQQDSGCKVQISPDSGGLPERSVSLTGAPESVQKAKMMLDDIVSR | -0.004 ± 0.043
34 | RTSMTEEYRVPDGMVGLIIGLGGEQINKIQQDSGCKVQISPDSGGLPERSVSLTGAPESVQKAKMMLDDIVSR | 0.042 ± 0.037
35 | RTSMTEEYRVPDGMVGLIIGCGGEQINKIQQDSGCKVQISPDSGGLPERSVSLTGAPESVQKAKMMLDDIVSR | -0.012 ± 0.055
36 | RTSMTEEYRVPDGMVGLIIGAGGEQINKIQQDSGCKVQISPDSGGLPERSVSLTGAPESVQKAKMMLDDIVSR | 0.026 ± 0.039
37 | RTSMTEEYRVPDGMVGLIIGMGGEQINKIQQDSGCKVQISPDSGGLPERSVSLTGAPESVQKAKMMLDDIVSR | -0.002 ± 0.047
38 | RTSMTEEYRVPDGMVGLIIGFGGEQINKIQQDSGCKVQISPDSGGLPERSVSLTGAPESVQKAKMMLDDIVSR | -0.146 ± 0.065
